Measured values published in US20120076796A1 (Ablynx, published 2012).
Values belong to the binder of their own block, whether it stands above or below them.

What was measured:
[1] = target: T1, Recombinant human Angiopoietin-2 (R&D Systems Cat No 623-AN/CF) (human, UniProt O15123 19-496, limits assumed); experiment: listed in the alignment of Ang2 binding Nanobodies; assay not told for this clone
T1 construct: Bought reagent; also called Ang2; human Ang2
T1 sequence (looked up): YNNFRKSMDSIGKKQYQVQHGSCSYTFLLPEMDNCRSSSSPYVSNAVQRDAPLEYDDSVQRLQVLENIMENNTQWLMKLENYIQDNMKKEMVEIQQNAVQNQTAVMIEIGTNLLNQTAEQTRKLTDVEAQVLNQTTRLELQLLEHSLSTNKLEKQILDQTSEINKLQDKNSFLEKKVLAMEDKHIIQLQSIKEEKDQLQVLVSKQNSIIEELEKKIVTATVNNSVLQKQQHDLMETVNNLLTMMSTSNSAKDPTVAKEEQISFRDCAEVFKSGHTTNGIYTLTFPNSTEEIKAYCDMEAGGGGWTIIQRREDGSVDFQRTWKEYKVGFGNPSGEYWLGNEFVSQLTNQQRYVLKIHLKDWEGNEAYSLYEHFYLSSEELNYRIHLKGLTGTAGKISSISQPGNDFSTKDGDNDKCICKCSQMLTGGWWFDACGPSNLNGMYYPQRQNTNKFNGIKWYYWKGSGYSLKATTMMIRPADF

[2] = target: T2, Recombinant human Angiopoietin-1 (R&D Systems Cat No 923-AN/CF) (human, UniProt Q15389 20-498, limits assumed); experiment: phage ELISA: 10 ul monoclonal phage supernatant in 100 ul on 0.2 ug/ml coated Ang1, anti-M13-HRP, OD 450 nm
T2 construct: Bought reagent; also called Ang1; human Ang1
T2 sequence (looked up): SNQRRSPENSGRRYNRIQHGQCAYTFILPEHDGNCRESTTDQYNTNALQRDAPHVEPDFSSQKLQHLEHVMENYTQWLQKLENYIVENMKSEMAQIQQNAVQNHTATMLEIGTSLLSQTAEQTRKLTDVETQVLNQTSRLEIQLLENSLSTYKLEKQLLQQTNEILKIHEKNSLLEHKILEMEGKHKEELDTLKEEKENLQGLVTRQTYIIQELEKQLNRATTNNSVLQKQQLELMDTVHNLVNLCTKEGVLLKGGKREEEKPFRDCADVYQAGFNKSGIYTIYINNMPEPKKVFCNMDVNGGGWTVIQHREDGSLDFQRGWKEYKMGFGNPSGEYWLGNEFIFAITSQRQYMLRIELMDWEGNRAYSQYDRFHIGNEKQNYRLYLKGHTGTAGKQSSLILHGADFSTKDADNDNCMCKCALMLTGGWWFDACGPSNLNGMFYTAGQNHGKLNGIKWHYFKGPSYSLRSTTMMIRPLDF
Experimental: In order to determine binding specificity to Ang1, the clones are tested in an ELISA binding assay setup, using the monoclonal phage pools. Phage binding to Ang1 (R&D Systems Cat No 923-AN/CF, Lot No FHWO73091) is tested. Shortly, 0.2 ug/ml Ang1 is immobilized on Maxisorp ELISA plates (Nunc) and free binding sites are blocked using 4% Marvel skimmed milk in PBS. Next, 10 ul of supernatant from the monoclonal phage inductions of the different clones in 100 ul 2% Marvel PBS are allowed to bind to the immobilized antigen. […] Binding specificity is determined based on OD values compared to controls having received an irrelevant phage or no phage.

[3] = target: T3, recombinant human Tie2/Fc Chimera (R&D Systems Cat No 313-TI, Lot No BKC06) (human, UniProt Q02763 23-745); experiment: phage ELISA: 10 ul monoclonal phage supernatant in 100 ul on 0.2 ug/ml coated Tie2/Fc, anti-M13-HRP, OD 450 nm
T3 construct: Bought reagent; also called receptor; not shown: Fc portion of the bought chimera
T3 sequence (Q02763 23-745, change not shown): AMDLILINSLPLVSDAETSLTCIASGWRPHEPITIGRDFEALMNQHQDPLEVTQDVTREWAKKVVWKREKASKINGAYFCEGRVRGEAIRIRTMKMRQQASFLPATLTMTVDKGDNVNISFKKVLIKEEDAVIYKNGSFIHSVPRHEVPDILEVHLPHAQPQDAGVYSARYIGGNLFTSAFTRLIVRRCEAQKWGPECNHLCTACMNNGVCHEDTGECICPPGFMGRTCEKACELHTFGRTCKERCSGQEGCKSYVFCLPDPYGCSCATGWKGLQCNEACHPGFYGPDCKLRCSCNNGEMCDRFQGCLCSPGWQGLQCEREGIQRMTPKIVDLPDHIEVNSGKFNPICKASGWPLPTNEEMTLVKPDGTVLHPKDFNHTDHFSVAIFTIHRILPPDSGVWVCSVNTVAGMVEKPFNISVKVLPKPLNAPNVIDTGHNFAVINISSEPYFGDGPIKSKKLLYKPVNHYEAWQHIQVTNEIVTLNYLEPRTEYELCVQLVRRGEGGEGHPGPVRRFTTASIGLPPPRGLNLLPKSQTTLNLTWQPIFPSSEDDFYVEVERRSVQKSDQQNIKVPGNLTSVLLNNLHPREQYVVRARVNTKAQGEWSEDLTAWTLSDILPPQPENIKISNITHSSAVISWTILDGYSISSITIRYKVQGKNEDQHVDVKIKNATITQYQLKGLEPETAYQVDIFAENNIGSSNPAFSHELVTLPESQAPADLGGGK
Experimental: In order to determine binding specificity to Tie2, the clones are tested in an ELISA binding assay setup, using the monoclonal phage pools. Phage binding to Tie2/Fc Chimera (R&D Systems Cat No 313-TI, Lot No BKC06) is tested. Shortly, 0.2 ug/ml receptor is immobilized on Maxisorp ELISA plates (Nunc) and free binding sites are blocked using 4% Marvel skimmed milk in PBS. Next, 10 ul of supernatant from the monoclonal phage inductions of the different clones in 100 ul 2% Marvel PBS are allowed to bind to the immobilized antigen. […] Binding specificity is determined based on OD values compared to controls having received no phage and to controls where in a similar ELISA binding assay the same monoclonal phage are tested for binding to 0.2 ug/ml of immobilized human IgG and 0.2 ug/ml of rh B7.2/Fc.

[4] = target: T3, recombinant human Tie2/Fc Chimera (R&D …); experiment: competition ELISA: 0.2 ug/ml Tie2/Fc pre-incubated with a dilution series of purified Nanobody, then on coated Ang1 (0.75 ug/ml); bound Tie2/Fc detected with anti-human IgG-HRP; blocked ligand: Ang1
Experimental: In order to determine the receptor blocking efficiency of clones tested positive for Ang1 competition, a dilution series of purified Nanobodies are tested in the ELISA-based ligand competition setup. In short, 0.75 ug/ml human. Ang1 (R&D Systems Cat No 923-AN/CF Lot No FHWO73091) is coated in 96 well Maxisorp microliter plates (Nunc) and blocked with 4% Marvel skimmed milk in PBS. In parallel, 0.2 ug/ml Tie2/Fc is incubated with a dilution series of purified Nanobodies. After 1 hour, the receptor-Nanobody pre-mixes are incubated 1 hour with the coated ligand. Bound Tie2/Fc is detected using HRP-conjugated goat anti-human IgG (Jackson Immunoresearch, Cat #109-035-098). Blocking activity is determined as loss of OD signal, as compared to wells where no P.E., or irrelevant P.E., has been added.

[5] = target: T4, biotinylated rh Ang2 (R&D Systems Cat No BT623, Lot No BNR174091) (human, UniProt O15123 19-496, limits assumed, biotinylated (sites not given)); experiment: competition ELISA: 0.05 ug/ml biotinylated Ang2 pre-incubated with a dilution series of purified Nanobody, then on coated Tie2/Fc (4 ug/ml); bound Ang2 detected with extravidin-HRP; blocked partner: Tie2/Fc
T4 construct: Bought reagent; also called biotinylated Ang2
T4 sequence (looked up): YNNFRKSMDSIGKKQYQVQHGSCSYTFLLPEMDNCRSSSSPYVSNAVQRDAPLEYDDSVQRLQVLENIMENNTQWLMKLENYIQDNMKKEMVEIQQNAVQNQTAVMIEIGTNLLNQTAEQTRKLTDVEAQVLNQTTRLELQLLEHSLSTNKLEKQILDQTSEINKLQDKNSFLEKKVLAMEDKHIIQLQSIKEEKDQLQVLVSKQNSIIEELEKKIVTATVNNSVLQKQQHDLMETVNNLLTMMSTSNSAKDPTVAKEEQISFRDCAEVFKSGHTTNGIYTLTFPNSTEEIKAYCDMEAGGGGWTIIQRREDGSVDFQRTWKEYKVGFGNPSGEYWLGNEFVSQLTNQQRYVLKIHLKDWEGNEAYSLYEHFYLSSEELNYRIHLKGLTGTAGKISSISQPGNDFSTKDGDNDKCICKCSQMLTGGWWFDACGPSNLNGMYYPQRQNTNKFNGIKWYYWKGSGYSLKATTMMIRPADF
Experimental: In order to determine the receptor blocking efficiency of clones tested positive for Ang2 blocking, a dilution series of purified Nanobodies are tested in the ELISA-based ligand competition setup. In short, 4 ug/ml human Tie2/Fc Chimera (R&D Systems Cat No 313-TI, Lot No BKC06)) is coated in 96 well Maxisorp microtiter plates (Nunc) and blocked with 4% Marvel skimmed milk in PBS. In parallel, 0.05 ug/ml biotinylated rh Ang2 (R&D Systems Cat No BT623, Lot No BNR174091) is incubated with a dilution series of purified Nanobodies. After 1 hour, the biotinylated Ang2-Nanobody pre-mixes are incubated 1 hour with the coated receptor. Bound biotinylated Ang2 is detected using HRP-conjugated extravidin (SIGMA E2886-1ML, 126K4801). Blocking activity is determined as loss of OD signal, as compared to wells where no P.E., or irrelevant P.E. has been added.

binding result [1]: binds
B1: 166-H5 (VHH)
VHH: EVQLVESGGGLVQAGGSLSLACVVSGRFSRINSMAWSRQVPGNARELVASVTSGGYTNYVDSVKGRFTISRDNAKNAIYLQMNSLKSEDTAVYYCNARVVVRTAHGFEDNYWGQGTQVTVSS

binding result [2]: binds
B2: 184-B6 (VHH)
VHH: EVQLVESGGGLVQPGGSLRLSCAASGFTFSNYAMTWVRQAPGKGLEWVSDISWDGDITTYAASVKGRFTISRDNAKKTLYLQMNSLKPEDSAVYYCNTYGYDSGRYYSYWGQGTQVTVSS
notes: Nanobody

binding result [3]: binds
B3: 162-F3 (VHH)
VHH: EVQLVESGGGLVQAGDSLRLSCTTSGRTFSDDTMGWFRQAPRKEREFVAAILWDSIKTYYADSVKGRFTISRDNAKNTVYLQMDSLKPEDTAVYYCAATPTAYGTDWYRNNYHYWGQGTQVTVSS
notes: Nanobody

IC50 (read off the curve) [4]: ~3 nM
B4: 162-E9 (VHH)
VHH: EVQLVESGGGLVQPGGSLRLSCAASGFTLDDYAIGWFRQAPGKEREAVSCISSVDGSTHYADSVKGRFTISRDNAKDTVYLQMNSLKPEDTAAYYCAVQGYSGGYYYTCEDSADFGFWGQGTQVTVSS
notes: Nanobody

IC50 (read off the curve) [5]: ~4 nM
B5: 166-H4 (VHH)
VHH: EVQLVESGGDLVQAGGSLRLSCAASGFTFGDFTIGWFRQAPGKEREGVSCINTGDGSTNYAESVKGRFTISSDNAKNTVYLQMNSLKPEDTAVYYCALDQAPMWSSWSAPYEYDYWGQGTQVTVSS
notes: Nanobody

IC50 (read off the curve) [4]: ~3 nM
B6: 162-E1 (VHH)
VHH: EVQLVESGGGLVQAGGSLRLSCAASGSIFSINAMGWYQQAPGKQRELVAFITSVGTTNYADSVKGRFIISRDNAKNTVYLQMNSLKPEDTAVYYCAADLHYSGPNYWGQGTQVTVSS
notes: Nanobody; Footnote: q in FR2 of 162-E1 from an Amber stop codon

binding result [2]: binds
B7: 173-H9 (VHH)
VHH: EVQLVESGGGLVQPGGSLRLSCAASGFTLSGNWMYWLRQAPGKGLEWISTITPRGLTAYADSVKGRFTISRDIAENTLYLQMNSLKSGDTAVYYCARDKTGERRGQGTQVTVSS
notes: Nanobody

binding result [2]: binds
B8: 185-H5 (VHH)
VHH: EVQLVESGGGLVQPGGSLRLSCAASGFTLDYYAIGWFRQAPGKEREGVSYISSSDGRTYYADSVKGRFTISRDNAKNTVYLQMNSLKPEDTAVYYCATDLSGRGDVSEYEYDYWGQGTQVTVSS
notes: Nanobody
